Results on twelve molecules are retold here after patent US20250205375A1, “HER3 RADIOIMMUNOTHERAPY FOR THE TREATMENT OF SOLID CANCERS” (ACTINIUM PHARMACEUTICALS, INC., priority 2023, published 2025).

Test [1] deals with PARP. The settings on record: cited from earlier work.
The subject of test [2] is triple-negative breast cancers (TNBC). The settings on record: TNBC patients, cited from earlier work.
In test [3] the target is HER3 (Homo sapiens, UniProt P21860). The settings on record: cited from earlier work.
Test [4] relates to HER3-expressing tumors. The settings on record: 0.1 mg/kg and 0.3 mg/kg; cited from earlier work.
Test [5] concerns the target T1, surface HER3 (Homo sapiens, UniProt P21860).
T1 construct: host or cells: tumour biopsies of patients
The settings on record: across all dose levels tested (100-2000 mg); cited from earlier work.

Test [6] deals with T2, total HER3 (Homo sapiens, UniProt P21860).
T2 construct: host or cells: tumour biopsies of patients
To be noted: 40 mg/kg; cited from earlier work.

Test [7] has as its system OVCAR5 cell line xenograft. The experiment in a line: Human OVCAR5 cell line xenograft ovarian cancer mouse model, tumor growth. Format: in vivo. The settings on record: 10 mg/kg on day 1. On the procedure: FIG. 17A is a graph showing the effects on tumor growth in a human OVCAR5 cell line xenograft ovarian cancer mouse model for ^225Ac-labeled HER3 antibody, in a single dose of 0.2 μCi or 0.4 μCi, versus standard of care Bevacizumab (10 mg/kg), ^225Ac-labeled non-specific IgG control (0.4 μCi), and naked (cold) HER3 mAb control (10 μg). All agents/controls were dosed on day 1.
FIG. 17B is a graph showing the effects on tumor growth in a human OVCAR5 cell line xenograft ovarian cancer mouse model for ^177Lu-labeled HER3 antibody, in a single dose of 200 μCi or 400 μCi, versus standard of care Bevacizumab (10 mg/kg), ^177Lu-labeled non-specific IgG control (400 μCi), and naked (cold) HER3 mAb control (10 μg). All agents/controls were dosed on day 1.
(A xenograft is tissue or cells of one species grown in another, often human tumour cells in immunodeficient mice.)

The target in test [8] is human recombinant HER3 (human, UniProt P21860 20-643). The experiment in a line: ELISA, plate coated with human recombinant HER3, serial dilutions 0-100 µg/ml, anti-human IgG F(ab')2-HRP secondary. On the procedure:
A secondary antibody (Goat Anti-human IgG F (ab′) 20-HRP) was added and incubated for 30 min on ice followed by color development using […] for 10 min.
On the technique in general: An ELISA detects its analyte on a solid surface through an enzyme-linked reagent.

Test [9] has as its system DU145 human prostate cancer line. The experiment in a line: Fluorescence flow cytometry cell binding assay, DU145. From the text:
(§1) FIG. 14 is a graph showing the fluorescence flow cytometry cell binding assay results for naked (unlabeled) and DOTA-conjugated (specifically, p-SCN-Bn-DOTA-conjugated) anti-HER3 antibodies AT02 and AV-203, versus nonstained control, secondary antibody (SA) only control, and non-specific IgG primary antibody control, for three human prostate cancer lines, DU145, 22RV1 and LnCAP.

For test [10], the system named is 22RV1 human prostate cancer line. The experiment in a line: Fluorescence flow cytometry cell binding assay, 22RV1.
Source text: as §1
For orientation: Flow cytometry measures light scatter and fluorescence of single cells or particles in a stream.

For test [11], the system named is LnCAP human prostate cancer line. The experiment in a line: Fluorescence flow cytometry cell binding assay, LnCAP.
Source text: as §1

The subject of test [12] is ACHN human renal cancer cells xenograft. Description: ACHN human renal cell carcinoma xenograft in Balb/c nude mice, tumor growth. Format: in vivo, mouse. The settings on record: 100 μg on day 1, intravenously. On the procedure: In more detail, the experiment was performed as follows. Female Balb/c nude mice were subcutaneously injected with 5×10^6 ACHN human renal cancer cells (ATCC; CRL-1611). […] Drug treatments were administered orally for vehicle (PBS) and tivozanib or intravenously for unlabeled/unconjugated HER3 monoclonal antibody (HER3), HER3-ARC (Actinium-225 labeled HER3 antibody) and HER3-ADC (patritumab deruxtecan). Single agents or combinations were dosed as follows: vehicle (daily for 14 days), unlabeled/unconjugated HER3 antibody (100 μg on day 1), HER3-ADC (3 mg/kg on day 1 and 21), HER3-ARC (0.4 μCi on day 1 and 0.2 μCi on day 21), tivozanib (0.3 mg/kg daily for 14 days), tivozanib (0.3 mg/kg daily for 14 days) with HER3-ARC (0.4 μCi on day 16), and HER3-ARC (0.4 μCi on day 1) with tivozanib (0.3 mg/kg starting day 3, daily for 14 days). […] HER3-ARC was always administered in a total protein dose of 50 μg irrespective of the radiation dose. Tumor volumes were measured twice weekly by caliper and body weights were monitored. The mean tumor volume for each group was analyzed and graphed using GraphPad Prism software and statistical analysis is performed with Tukey's multiple comparisons test.

For the molecule `C[C@]1(c2nc3c(C(N)=O)cccc3[nH]2)CCCN1` [veliparib], the IC50 values entry in test [1] is on record as “nanomolar range”.

As for `Cn1ncnc1[C@H]1c2n[nH]c(=O)c3cc(F)cc(c23)N[C@@H]1c1ccc(F)cc1` [talazoparib], in test [1], the IC50 values entry is “picomolar range”.

As to `CNCc1ccc(-c2[nH]c3cc(F)cc4c3c2CCNC4=O)cc1` [rucaparib], the IC50 values entry in test [1] is “nanomolar range”.

Regarding `O=C(c1cc(Cc2n[nH]c(=O)c3ccccc23)ccc1F)N1CCN(C(=O)C2CC2)CC1` [olaparib], the disease stabilization rate result in [2] (BRCA1/2-mutant vs non-mutant) is on record as “higher disease stabilization rate in BRCA1/2-mutant compared to non-mutant patients”. Besides, the sustained responses result in [2] (either cohort) was “no sustained responses”.

Consider lumretuzumab: HER3 antibody from Roche, for which the “downregulation of HER3” value in test [3] (1-10 mg/kg) was “dose-dependent”. Besides, in test [3] (lowest dose 0.3 mg/kg), the HER3 target downregulation entry is “did not result in HER3 target downregulation”. Moreover, the “control of HER3-expressing tumors” value in test [4] is reported as “ineffective”. Further, the “downregulation of surface HER3 in serial tumor biopsies” value in test [5] is 92 % of patients.

As to “LJM716: HER3-targeting antibody from Novartis”, the “decrease in total HER3 levels, paired tumor biopsy samples” value in test [6] is reported as “three out of five”.

Turning to `NC(=O)c1cccc2cn(-c3ccc([C@@H]4CCCNC4)cc3)nc12` [niraparib], in test [1], the IC50 values entry is on record as “nanomolar range”.

As to “Bevacizumab: standard of care agent; VEGF inhibitor [reference compound]”, the “antitumor efficacy (tumor growth)” value in test [7] is “minimal effect”.

B1: 225Ac-HER3-ARC (Actinium-225 labeled, p-SCN-Bn-DOTA-conjugated anti-HER3 IgG monoclonal antibody, heavy chain SEQ ID NO:77 and light chain SEQ ID NO:78) (antibody, V domains shown)
VH: QVQLVESGGGLVKPGGSLRLSCAASGFTFSDYAMSWIRQAPGKGLEWVSTISDGGTYTYYPDSVKGRFTISRDNAKNSLYLQMNSLRAEDTAVYYCAREWGDYDGFDYWGQGTLVTVSS
VL: DIQMTQSPSSLSASVGDRVTITCRASQEISGYLSWYQQKPGKAPKRLIYAASTLDSGVPSRFSGSGSGTEFTLTISSLQPEDFATYYCLQYDSYPYTFGQGTKLEIKR
modifications: conjugated to the chelator DOTA using p-SCN-Bn-DOTA and radiolabeled via chelation with Actinium-225; sites of conjugation not stated
notes: Antibody radioconjugate of m1; also called Ac225 labeled DOTA-conjugated anti-HER3 monoclonal antibody
In general, EC50 refers to the midpoint of the concentration-response curve. On to B1, for which the concentration giving a half-maximal response (EC50) in test [8] is 1.7 ng/mL.

B2: DOTA conjugated AV-203 (conjugate)
VH: B1 VH
VL: DIQMTQSPSSLSASVGDRVTITCRASQEISGYLSWYQQKPGKAPKRLIYAASTLDSGVPSRFSGSGSGTEFTLTISSLQPEDFATYYCLQYDSYPYTFGQGTKLEIK
As to B2, the cell binding result in test [9] was “specifically and comparably bound”; in test [10], “specifically and comparably bound”; in test [11] it was “specifically and comparably bound”.

B3: anti-HER3 IgG monoclonal antibody consisting of heavy chain SEQ ID NO:77 and light chain SEQ ID NO:78 (unmodified) (antibody, V domains shown)
VH: B1 VH
VL: B1 VL
notes: IgG; Detected with an anti-human IgG secondary antibody; also called unmodified anti-HER3 mAb; unmodified anti-HER3 antibody
For B3, the EC50 in test [8] stood at 2.2 ng/mL.

B4: AV-203: anti-HER3 monoclonal antibody from AVEO Oncology; heavy chain variable region SEQ ID NO:21, light chain variable region SEQ ID NO:22 (antibody, V domains shown)
VH: B1 VH
VL: B2 VL
As for B4, the “tumor growth (mean tumor volume)” value in test [12] was “no effect on tumor growth”. The cell binding result is “specifically and comparably bound” in [9]; “specifically and comparably bound” in [10]; “specifically and comparably bound” in test [11].
